Laboratory results as given in patent US20250250335A1.
“And” between values parts separate entries of the source, which are not always exact repeats. Identical values can stand only once.

Target: T1, mouse CEACAM5 (mouse) (UniProt Q3UKK2)
T1 sequence (looked up): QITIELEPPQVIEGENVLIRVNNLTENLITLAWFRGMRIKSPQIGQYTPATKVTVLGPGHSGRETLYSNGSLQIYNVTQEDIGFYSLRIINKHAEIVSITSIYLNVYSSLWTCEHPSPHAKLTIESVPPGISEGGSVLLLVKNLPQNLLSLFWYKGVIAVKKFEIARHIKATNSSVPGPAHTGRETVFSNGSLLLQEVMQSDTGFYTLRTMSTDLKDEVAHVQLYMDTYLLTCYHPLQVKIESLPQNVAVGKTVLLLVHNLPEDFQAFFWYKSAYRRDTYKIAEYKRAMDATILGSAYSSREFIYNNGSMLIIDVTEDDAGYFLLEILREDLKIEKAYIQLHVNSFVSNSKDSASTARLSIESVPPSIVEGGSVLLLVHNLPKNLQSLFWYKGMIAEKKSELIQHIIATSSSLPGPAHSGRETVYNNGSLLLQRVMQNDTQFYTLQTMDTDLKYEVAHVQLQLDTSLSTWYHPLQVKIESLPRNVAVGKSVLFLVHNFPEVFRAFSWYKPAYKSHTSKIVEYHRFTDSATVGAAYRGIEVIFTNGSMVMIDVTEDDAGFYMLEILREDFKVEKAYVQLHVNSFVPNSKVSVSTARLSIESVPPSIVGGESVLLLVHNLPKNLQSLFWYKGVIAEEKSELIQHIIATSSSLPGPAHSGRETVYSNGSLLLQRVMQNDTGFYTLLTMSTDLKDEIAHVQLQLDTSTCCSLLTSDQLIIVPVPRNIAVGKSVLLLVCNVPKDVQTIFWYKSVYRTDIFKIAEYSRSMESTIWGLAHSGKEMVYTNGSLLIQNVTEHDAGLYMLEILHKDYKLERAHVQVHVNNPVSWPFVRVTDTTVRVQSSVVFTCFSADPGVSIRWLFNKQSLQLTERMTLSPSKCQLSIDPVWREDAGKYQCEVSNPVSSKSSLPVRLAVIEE
Test: ELISA on coated protein, OD450

OD: 0.31 OD and 0.24 OD
B1: Antibody 7 (antibody, V domains shown)
VH: QIQLVQSGPELKKPGETVKISCKASGYTFTDYGMNWVKQAPGKGLKWMGWINTYTGEPTYPDDFKGRFAFSLETSATTAYLQINNLKNEDTATYFCSRGDLLVRLDNWGQGTTLTVSS
VL: DIQMTQSPSSLSASLGGKVTITCKASQDINKYISWYQHKPGKGPRLLIHYTSTLQSGIPSRFSGSGSGRDYSFSISNLEPEDIATYYCLQYDYLRTFGGGTKLEIK
